From patent US20130323786A1 (Biogen, published 2013)

T1: LINGO-Fc (human, UniProt Q96FE5 40-538, limits assumed)
T1 construct: not shown: Fc part
T1 sequence: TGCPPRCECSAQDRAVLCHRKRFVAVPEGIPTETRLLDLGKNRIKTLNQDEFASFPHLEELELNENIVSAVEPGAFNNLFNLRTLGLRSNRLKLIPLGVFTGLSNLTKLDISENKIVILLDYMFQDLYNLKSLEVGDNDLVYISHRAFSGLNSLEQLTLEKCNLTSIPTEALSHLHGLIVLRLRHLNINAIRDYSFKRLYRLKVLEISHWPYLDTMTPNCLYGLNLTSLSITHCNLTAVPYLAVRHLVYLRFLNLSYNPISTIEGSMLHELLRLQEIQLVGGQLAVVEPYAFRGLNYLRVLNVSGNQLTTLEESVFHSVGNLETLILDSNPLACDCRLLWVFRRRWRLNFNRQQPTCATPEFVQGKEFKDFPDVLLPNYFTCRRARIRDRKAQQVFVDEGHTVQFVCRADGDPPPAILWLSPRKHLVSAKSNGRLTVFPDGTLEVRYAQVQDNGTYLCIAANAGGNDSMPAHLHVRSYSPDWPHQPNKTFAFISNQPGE


Tests used:
LINGO-Fc [1] = target: T1, LINGO-Fc; assay: direct ELISA on LINGO-Fc; half-maximal concentration relative to Li33;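 also: direct binding ELISA on plates coated with LINGO-Fc, concentration giving half of saturating binding, expressed as a ratio to the same value for the comparator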
Experimental: (§1) A direct binding ELISA assay was performed using LINGO-Fc coated plates. The half maximal concentration that gave 50% saturation of binding was measured and is reported as a ratio of the same measurement for Li33. In addition, the OD450 for maximal saturation value was measured and is reported as a ratio of the same measurement for Li33.

LINGO-Fc [2] = target: T1, LINGO-Fc; assay: direct ELISA on LINGO-Fc; OD450 at saturation relative to Li33;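 also: binding to plate-coated LINGO-Fc read by OD450, with the value at maximal saturation divided by the corresponding Li33 value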
Experimental: as §1

Binder	ELISA Ratio (LINGO-Fc [1]) [ratio]	Plateau Ratio (LINGO-Fc [2]) [ratio]
WT Li33 (Table 11) (antibody, V domains shown) VH: EVQLLESGGGLVQPGGSLRLSCAASGFTFSIYPMFWVRQAPGKGLEWVSWIGPSGGITKYADSVKGRFTISRDNSKNTLYLQMNSLRAEDTATYYCAREGHNDWYFDLWGRGTLVTVSS VL: DIQMTQSPGTLSLSPGERATLSCRASQSVSSYLAWYQQKPGQAPRLLIYDASNRATGIPARFSGSGSGTEFTLTISSLQSEDFAVYYCQQYDKWPLTFGGGTKVEIKR	1	0.91
Li33 variant I57H (SEQ ID NO:162) (antibody, V domains shown, unchanged chain from WT Li33) VH: EVQLLESGGGLVQPGGSLRLSCAASGFTFSIYPMFWVRQAPGKGLEWVSWIGPSGGHTKYADSVKGRFTISRDNSKNTLYLQMNSLRAEDTATYYCAREGHNDWYFDLWGRGTLVTVSS VL: DIQMTQSPGTLSLSPGERATLSCRASQSVSSYLAWYQQKPGQAPRLLIYDASNRATGIPARFSGSGSGTEFTLTISSLQSEDFAVYYCQQYDKWPLTFGGGTKVEIKR	3.2	1.07
Li33 variant I57S (SEQ ID NO:183) (antibody, V domains shown, unchanged chain from WT Li33) VH: EVQLLESGGGLVQPGGSLRLSCAASGFTFSIYPMFWVRQAPGKGLEWVSWIGPSGGSTKYADSVKGRFTISRDNSKNTLYLQMNSLRAEDTATYYCAREGHNDWYFDLWGRGTLVTVSS VL: DIQMTQSPGTLSLSPGERATLSCRASQSVSSYLAWYQQKPGQAPRLLIYDASNRATGIPARFSGSGSGTEFTLTISSLQSEDFAVYYCQQYDKWPLTFGGGTKVEIKR	0.6	0.96
Li33 variant I57W (SEQ ID NO:181) (antibody, V domains shown, unchanged chain from WT Li33) VH: EVQLLESGGGLVQPGGSLRLSCAASGFTFSIYPMFWVRQAPGKGLEWVSWIGPSGGWTKYADSVKGRFTISRDNSKNTLYLQMNSLRAEDTATYYCAREGHNDWYFDLWGRGTLVTVSS VL: DIQMTQSPGTLSLSPGERATLSCRASQSVSSYLAWYQQKPGQAPRLLIYDASNRATGIPARFSGSGSGTEFTLTISSLQSEDFAVYYCQQYDKWPLTFGGGTKVEIKR	0	–
Li33 variant P53W (SEQ ID NO:154) (antibody, V domains shown, unchanged chain from WT Li33) VH: EVQLLESGGGLVQPGGSLRLSCAASGFTFSIYPMFWVRQAPGKGLEWVSWIGWSGGITKYADSVKGRFTISRDNSKNTLYLQMNSLRAEDTATYYCAREGHNDWYFDLWGRGTLVTVSS VL: DIQMTQSPGTLSLSPGERATLSCRASQSVSSYLAWYQQKPGQAPRLLIYDASNRATGIPARFSGSGSGTEFTLTISSLQSEDFAVYYCQQYDKWPLTFGGGTKVEIKR	3.9	0.55
Li33 variant I57P (SEQ ID NO:184) (antibody, V domains shown, unchanged chain from WT Li33) VH: EVQLLESGGGLVQPGGSLRLSCAASGFTFSIYPMFWVRQAPGKGLEWVSWIGPSGGPTKYADSVKGRFTISRDNSKNTLYLQMNSLRAEDTATYYCAREGHNDWYFDLWGRGTLVTVSS VL: DIQMTQSPGTLSLSPGERATLSCRASQSVSSYLAWYQQKPGQAPRLLIYDASNRATGIPARFSGSGSGTEFTLTISSLQSEDFAVYYCQQYDKWPLTFGGGTKVEIKR	0.6	1.27
Li33 variant I57T (SEQ ID NO:186) (antibody, V domains shown, unchanged chain from WT Li33) VH: EVQLLESGGGLVQPGGSLRLSCAASGFTFSIYPMFWVRQAPGKGLEWVSWIGPSGGTTKYADSVKGRFTISRDNSKNTLYLQMNSLRAEDTATYYCAREGHNDWYFDLWGRGTLVTVSS VL: DIQMTQSPGTLSLSPGERATLSCRASQSVSSYLAWYQQKPGQAPRLLIYDASNRATGIPARFSGSGSGTEFTLTISSLQSEDFAVYYCQQYDKWPLTFGGGTKVEIKR	1.1	1.01
Li33 variant I57V (SEQ ID NO:185) (antibody, V domains shown, unchanged chain from WT Li33) VH: EVQLLESGGGLVQPGGSLRLSCAASGFTFSIYPMFWVRQAPGKGLEWVSWIGPSGGVTKYADSVKGRFTISRDNSKNTLYLQMNSLRAEDTATYYCAREGHNDWYFDLWGRGTLVTVSS VL: DIQMTQSPGTLSLSPGERATLSCRASQSVSSYLAWYQQKPGQAPRLLIYDASNRATGIPARFSGSGSGTEFTLTISSLQSEDFAVYYCQQYDKWPLTFGGGTKVEIKR	1.4	1.13
Li33 variant I57M (SEQ ID NO:160) (antibody, V domains shown, unchanged chain from WT Li33) VH: EVQLLESGGGLVQPGGSLRLSCAASGFTFSIYPMFWVRQAPGKGLEWVSWIGPSGGMTKYADSVKGRFTISRDNSKNTLYLQMNSLRAEDTATYYCAREGHNDWYFDLWGRGTLVTVSS VL: DIQMTQSPGTLSLSPGERATLSCRASQSVSSYLAWYQQKPGQAPRLLIYDASNRATGIPARFSGSGSGTEFTLTISSLQSEDFAVYYCQQYDKWPLTFGGGTKVEIKR	3.8	1.09
Li33 variant I57L (SEQ ID NO:163) (antibody, V domains shown, unchanged chain from WT Li33) VH: EVQLLESGGGLVQPGGSLRLSCAASGFTFSIYPMFWVRQAPGKGLEWVSWIGPSGGLTKYADSVKGRFTISRDNSKNTLYLQMNSLRAEDTATYYCAREGHNDWYFDLWGRGTLVTVSS VL: DIQMTQSPGTLSLSPGERATLSCRASQSVSSYLAWYQQKPGQAPRLLIYDASNRATGIPARFSGSGSGTEFTLTISSLQSEDFAVYYCQQYDKWPLTFGGGTKVEIKR	0.7	1
Li33 variant P53S (SEQ ID NO:152) (antibody, V domains shown, unchanged chain from WT Li33) VH: EVQLLESGGGLVQPGGSLRLSCAASGFTFSIYPMFWVRQAPGKGLEWVSWIGSSGGITKYADSVKGRFTISRDNSKNTLYLQMNSLRAEDTATYYCAREGHNDWYFDLWGRGTLVTVSS VL: DIQMTQSPGTLSLSPGERATLSCRASQSVSSYLAWYQQKPGQAPRLLIYDASNRATGIPARFSGSGSGTEFTLTISSLQSEDFAVYYCQQYDKWPLTFGGGTKVEIKR	2.5	1.43
Li33 variant P53L (SEQ ID NO:151) (antibody, V domains shown, unchanged chain from WT Li33) VH: EVQLLESGGGLVQPGGSLRLSCAASGFTFSIYPMFWVRQAPGKGLEWVSWIGLSGGITKYADSVKGRFTISRDNSKNTLYLQMNSLRAEDTATYYCAREGHNDWYFDLWGRGTLVTVSS VL: DIQMTQSPGTLSLSPGERATLSCRASQSVSSYLAWYQQKPGQAPRLLIYDASNRATGIPARFSGSGSGTEFTLTISSLQSEDFAVYYCQQYDKWPLTFGGGTKVEIKR	2.2	1.13
Li33 variant I57N (SEQ ID NO:161) (antibody, V domains shown, unchanged chain from WT Li33) VH: EVQLLESGGGLVQPGGSLRLSCAASGFTFSIYPMFWVRQAPGKGLEWVSWIGPSGGNTKYADSVKGRFTISRDNSKNTLYLQMNSLRAEDTATYYCAREGHNDWYFDLWGRGTLVTVSS VL: DIQMTQSPGTLSLSPGERATLSCRASQSVSSYLAWYQQKPGQAPRLLIYDASNRATGIPARFSGSGSGTEFTLTISSLQSEDFAVYYCQQYDKWPLTFGGGTKVEIKR	2.9	1.1

Next, values leading:

ELISA Ratio (LINGO-Fc [1]) [ratio]	Plateau Ratio (LINGO-Fc [2]) [ratio]	Binder
4	0.71	Li33 variant W50D (SEQ ID NO:175) (antibody, V domains shown, unchanged chain from WT Li33) VH: EVQLLESGGGLVQPGGSLRLSCAASGFTFSIYPMFWVRQAPGKGLEWVSDIGPSGGITKYADSVKGRFTISRDNSKNTLYLQMNSLRAEDTATYYCAREGHNDWYFDLWGRGTLVTVSS VL: DIQMTQSPGTLSLSPGERATLSCRASQSVSSYLAWYQQKPGQAPRLLIYDASNRATGIPARFSGSGSGTEFTLTISSLQSEDFAVYYCQQYDKWPLTFGGGTKVEIKR
2.3	0.91	Li33 variant I57G (SEQ ID NO:159) (antibody, V domains shown, unchanged chain from WT Li33) VH: EVQLLESGGGLVQPGGSLRLSCAASGFTFSIYPMFWVRQAPGKGLEWVSWIGPSGGGTKYADSVKGRFTISRDNSKNTLYLQMNSLRAEDTATYYCAREGHNDWYFDLWGRGTLVTVSS VL: DIQMTQSPGTLSLSPGERATLSCRASQSVSSYLAWYQQKPGQAPRLLIYDASNRATGIPARFSGSGSGTEFTLTISSLQSEDFAVYYCQQYDKWPLTFGGGTKVEIKR
2	0.83	Li33 variant I57F (SEQ ID NO:164) (antibody, V domains shown, unchanged chain from WT Li33) VH: EVQLLESGGGLVQPGGSLRLSCAASGFTFSIYPMFWVRQAPGKGLEWVSWIGPSGGFTKYADSVKGRFTISRDNSKNTLYLQMNSLRAEDTATYYCAREGHNDWYFDLWGRGTLVTVSS VL: DIQMTQSPGTLSLSPGERATLSCRASQSVSSYLAWYQQKPGQAPRLLIYDASNRATGIPARFSGSGSGTEFTLTISSLQSEDFAVYYCQQYDKWPLTFGGGTKVEIKR
3.1	0.83	Li33 variant P53G (SEQ ID NO:180) (antibody, V domains shown, unchanged chain from WT Li33) VH: EVQLLESGGGLVQPGGSLRLSCAASGFTFSIYPMFWVRQAPGKGLEWVSWIGGSGGITKYADSVKGRFTISRDNSKNTLYLQMNSLRAEDTATYYCAREGHNDWYFDLWGRGTLVTVSS VL: DIQMTQSPGTLSLSPGERATLSCRASQSVSSYLAWYQQKPGQAPRLLIYDASNRATGIPARFSGSGSGTEFTLTISSLQSEDFAVYYCQQYDKWPLTFGGGTKVEIKR
2.1	0.85	Li33 variant P53T (SEQ ID NO:153) (antibody, V domains shown, unchanged chain from WT Li33) VH: EVQLLESGGGLVQPGGSLRLSCAASGFTFSIYPMFWVRQAPGKGLEWVSWIGTSGGITKYADSVKGRFTISRDNSKNTLYLQMNSLRAEDTATYYCAREGHNDWYFDLWGRGTLVTVSS VL: DIQMTQSPGTLSLSPGERATLSCRASQSVSSYLAWYQQKPGQAPRLLIYDASNRATGIPARFSGSGSGTEFTLTISSLQSEDFAVYYCQQYDKWPLTFGGGTKVEIKR
0	–	Li33 variant I57Y (SEQ ID NO:182) (antibody, V domains shown, unchanged chain from WT Li33) VH: EVQLLESGGGLVQPGGSLRLSCAASGFTFSIYPMFWVRQAPGKGLEWVSWIGPSGGYTKYADSVKGRFTISRDNSKNTLYLQMNSLRAEDTATYYCAREGHNDWYFDLWGRGTLVTVSS VL: DIQMTQSPGTLSLSPGERATLSCRASQSVSSYLAWYQQKPGQAPRLLIYDASNRATGIPARFSGSGSGTEFTLTISSLQSEDFAVYYCQQYDKWPLTFGGGTKVEIKR
